In experiment [1] the target is chimeric receptor Flt(1-7)-EpoR on Baf/3 cells (human) (UniProt P17948). Description: cell-based or functional assay.
A further experiment deals with human VEGF165 (human, UniProt P15692-4 27-191). Put plainly: ELISA of rabbit ocular tissue and plasma samples on human VEGF165-coated plates (pharmacokinetic detection). A general note: ELISA stands for enzyme-linked immunosorbent assay.

The source of these data is patent US20080220004A1 (published 2008).

human VEGF165, sequence (P15692 other isoform, or with tags, fused parts or gaps): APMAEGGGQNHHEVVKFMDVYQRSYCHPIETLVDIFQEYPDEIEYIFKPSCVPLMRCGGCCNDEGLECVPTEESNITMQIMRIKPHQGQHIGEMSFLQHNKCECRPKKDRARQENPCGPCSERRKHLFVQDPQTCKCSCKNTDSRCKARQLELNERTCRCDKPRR
chimeric receptor Flt(1-7)-EpoR on Baf/3 cells (human), sequence (P17948 other isoform, or with tags, fused parts or gaps mutant limits assumed): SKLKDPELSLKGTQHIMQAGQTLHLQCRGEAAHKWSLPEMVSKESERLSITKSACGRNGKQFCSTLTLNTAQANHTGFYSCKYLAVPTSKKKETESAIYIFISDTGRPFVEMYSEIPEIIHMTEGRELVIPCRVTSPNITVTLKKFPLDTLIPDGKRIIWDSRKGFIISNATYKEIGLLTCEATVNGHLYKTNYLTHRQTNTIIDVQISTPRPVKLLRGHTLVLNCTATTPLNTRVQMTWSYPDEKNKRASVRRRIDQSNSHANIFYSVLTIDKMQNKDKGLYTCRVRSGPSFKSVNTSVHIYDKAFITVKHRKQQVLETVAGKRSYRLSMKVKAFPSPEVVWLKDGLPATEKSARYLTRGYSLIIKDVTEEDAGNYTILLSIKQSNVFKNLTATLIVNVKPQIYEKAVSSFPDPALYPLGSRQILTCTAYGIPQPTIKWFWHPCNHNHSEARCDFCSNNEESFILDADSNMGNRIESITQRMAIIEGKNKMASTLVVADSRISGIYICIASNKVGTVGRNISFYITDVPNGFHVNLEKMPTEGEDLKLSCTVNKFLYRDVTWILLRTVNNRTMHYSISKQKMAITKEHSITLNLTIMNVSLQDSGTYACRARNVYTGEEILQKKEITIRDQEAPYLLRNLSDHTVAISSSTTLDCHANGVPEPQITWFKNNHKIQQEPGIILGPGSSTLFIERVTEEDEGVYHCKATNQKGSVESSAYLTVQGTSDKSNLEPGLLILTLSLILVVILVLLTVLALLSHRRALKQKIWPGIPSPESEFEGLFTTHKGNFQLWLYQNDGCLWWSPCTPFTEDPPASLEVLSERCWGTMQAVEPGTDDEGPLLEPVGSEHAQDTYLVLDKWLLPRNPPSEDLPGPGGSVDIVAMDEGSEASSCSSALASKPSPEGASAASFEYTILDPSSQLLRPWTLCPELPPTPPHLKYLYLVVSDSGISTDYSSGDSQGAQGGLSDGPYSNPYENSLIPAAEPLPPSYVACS
Protocol for human VEGF165: Ocular and systemic levels of two VEGF inhibitors were determined after a single intravitreal administration to male Pigmented New Zealand Cross Bred rabbits. At various time points following the injection, the rabbits were sacrificed and vitreous, retina, and choroid tissues were collected, as well as blood samples for plasma and serum.
Sample Processing. Generally, vitreal samples were thawed at room temperature and transferred to individual 5 mL polypropylene tubes. An equivalent weight per volume of RIPA buffer (20 MM Tris HCl, pH 7.5, 5 mM benzamidine, 150 mM sodium chloride, 50 mM sodium fluoride, 1 mM sodium orthovanadate, and 1 mM EDTA) was added to each sample, and homogenized (Cyclone I.Q. Microprocessor, Sentry) for 2, 45 second cycles at 5,500 rpm. The samples were then incubated for 20 minutes on ice and then centrifuged for 30 minute at 5,500 rpm at 4° C. The supernatant was removed and stored at −80° C. for analysis. Retinal and choroid samples were similarly processed the samples were homogenized for 30-60 seconds at the highest speed setting (Ultra Tunax T8 Homogenizer with S8N-5G Disposing Element, IKA Laboratoies). The samples were transferred to individual 1.5 mL eppendorf tubes and incubated for 20 minutes on ice. They were then centrifuged for 30 minutes at 5,500 rpm, 4° C. […]

“VEGF 121 (R&D Biosystems) (from UniProt P15692 27-147) (ligand)” gave a proliferation of Baf/Flt(1-7)-EpoR cells (WST-8 bioreduction), EC50 in experiment [1] of 0.018 nM.

B1: mini-VEGF trap (other)
chain: SDTGRPFVEMYSEIPEIIHMTEGRELVIPCRVTSPNITVTLKKFPLDTLIPDGKRIIWDSRKGFIISNATYKEIGLLTCEATVNGHLYKTNYLTHRQTNTIIDVVLSPSHGIELSVGEKLVLNCTARTELNVGIDFNWEYPSSKHQHKKLVNRDLKTQSGSEMKKFLSTLTIDGVTRSDQGLYTCAASSGLMTKKNSTFVRVHEKDKTHTCPPC
notes: also called truncated VEGF trap protein
Turning to B1, the binding result with human VEGF165 is listed as “binds”.
